# Measurements from article PMC5915679.
# Biological target: human Argonaute-2 (human) (UniProt Q9UKV8)
# Test: ITC
Kd [nM],fold lower affinity than without competitor (with 5 μM motif-2) [fold],fold lower affinity than without competitor (with 10 μM motif-2) [fold],Binder
118,,,VNRTDLDPRVLSNSGWGQTPIKQNTAWDTETSPRGE (domain or fragment) [hGW182 (TNRC6A) motif-1]
234,7,15,TVDNGTSAWGKPIDSGPSWGEP [hGW182 (TNRC6A) hook motif]
